# From patent US20230381229A1 (ALPINE IMMUNE SCIENCES, INC., published 2023)
# B1: variant CD155 IgV-Fc P18T, S52A, V57A, Q60R, Q62K, S65C, L79P, F91T, N100Y, T107M (Fc fusion)
# chain: WPPPGTGDVVVQAPTQVTGFLGDSVTLPCYLQVPNMEVTHVSQLTWARHGEAGSMAAFHRTKGPCYSESKRLEFVAARPGAELRNASLRMTGLRVEDEGYYTCLFVMFPQGSRSVDIWLRVLGSGGGGSEPKSSDKTHTCPPCPAPEAEGAPSVFLFPPKPKDTLMISRTPEVTCVVVDVSHEDPEVKFNWYVDGVEVHNAKTKPREEQYNSTYRVVSVLTVLHQDWLNGKEYKCKVSNKALPAPIEKTISKAKGQPREPQVYTLPPSRDELTKNQVSLTCLVKGFYPSDIAVEWESNGQPENNYKTTPPVLDSDGSFFLYSKLTVDKSRWQQGNVFSCSVMHEALHNHYTQKSLSLSPGK
# B2: variant CD155 IgV-Fc P18S, H59N, V75A, L79P, A81T, F91S, L104M, T107M (Fc fusion)
# chain: WPPPGTGDVVVQAPTQVSGFLGDSVTLPCYLQVPNMEVTHVSQLTWARHGESGSMAVFNQTQGPSYSESKRLEFAAARPGTELRNASLRMSGLRVEDEGNYTCMFVMFPQGSRSVDIWLRVLGSGGGGSEPKSSDKTHTCPPCPAPEAEGAPSVFLFPPKPKDTLMISRTPEVTCVVVDVSHEDPEVKFNWYVDGVEVHNAKTKPREEQYNSTYRVVSVLTVLHQDWLNGKEYKCKVSNKALPAPIEKTISKAKGQPREPQVYTLPPSRDELTKNQVSLTCLVKGFYPSDIAVEWESNGQPENNYKTTPPVLDSDGSFFLYSKLTVDKSRWQQGNVFSCSVMHEALHNHYTQKSLSLSPGK
# B3: variant CD155 IgV-Fc T15I, P18S, V33M, N35F, T39S, M55L, R78S, L79P, F91S, T107M (Fc fusion)
# chain: WPPPGTGDVVVQAPIQVSGFLGDSVTLPCYLQMPFMEVSHVSQLTWARHGESGSLAVFHQTQGPSYSESKRLEFVAASPGAELRNASLRMSGLRVEDEGNYTCLFVMFPQGSRSVDIWLRVLGSGGGGSEPKSSDKTHTCPPCPAPEAEGAPSVFLFPPKPKDTLMISRTPEVTCVVVDVSHEDPEVKFNWYVDGVEVHNAKTKPREEQYNSTYRVVSVLTVLHQDWLNGKEYKCKVSNKALPAPIEKTISKAKGQPREPQVYTLPPSRDELTKNQVSLTCLVKGFYPSDIAVEWESNGQPENNYKTTPPVLDSDGSFFLYSKLTVDKSRWQQGNVFSCSVMHEALHNHYTQKSLSLSPGK
# B4: variant CD155 IgV-Fc P18S, Q62K, K70E, L79P, F91S, G92E, R113W (Fc fusion)
# chain: WPPPGTGDVVVQAPTQVSGFLGDSVTLPCYLQVPNMEVTHVSQLTWARHGESGSMAVFHQTKGPSYSESERLEFVAARPGAELRNASLRMSELRVEDEGNYTCLFVTFPQGSWSVDIWLRVLGSGGGGSEPKSSDKTHTCPPCPAPEAEGAPSVFLFPPKPKDTLMISRTPEVTCVVVDVSHEDPEVKFNWYVDGVEVHNAKTKPREEQYNSTYRVVSVLTVLHQDWLNGKEYKCKVSNKALPAPIEKTISKAKGQPREPQVYTLPPSRDELTKNQVSLTCLVKGFYPSDIAVEWESNGQPENNYKTTPPVLDSDGSFFLYSKLTVDKSRWQQGNVFSCSVMHEALHNHYTQKSLSLSPGK
# B5: variant CD155 IgV-Fc P18S, W46R, E68D, L79P, F91S, T107M, R113G (Fc fusion)
# chain: WPPPGTGDVVVQAPTQVSGFLGDSVTLPCYLQVPNMEVTHVSQLTRARHGESGSMAVFHQTQGPSYSDSKRLEFVAARPGAELRNASLRMSGLRVEDEGNYTCLFVMFPQGSGSVDIWLRVLGSGGGGSEPKSSDKTHTCPPCPAPEAEGAPSVFLFPPKPKDTLMISRTPEVTCVVVDVSHEDPEVKFNWYVDGVEVHNAKTKPREEQYNSTYRVVSVLTVLHQDWLNGKEYKCKVSNKALPAPIEKTISKAKGQPREPQVYTLPPSRDELTKNQVSLTCLVKGFYPSDIAVEWESNGQPENNYKTTPPVLDSDGSFFLYSKLTVDKSRWQQGNVFSCSVMHEALHNHYTQKSLSLSPGK
# B6: variant CD155 IgV-Fc P18T, M55L, T61R, L79P, F91S, V106I, T107M (Fc fusion)
# chain: WPPPGTGDVVVQAPTQVTGFLGDSVTLPCYLQVPNMEVTHVSQLTWARHGESGSLAVFHQRQGPSYSESKRLEFVAARPGAELRNASLRMSGLRVEDEGNYTCLFIMFPQGSRSVDIWLRVLGSGGGGSEPKSSDKTHTCPPCPAPEAEGAPSVFLFPPKPKDTLMISRTPEVTCVVVDVSHEDPEVKFNWYVDGVEVHNAKTKPREEQYNSTYRVVSVLTVLHQDWLNGKEYKCKVSNKALPAPIEKTISKAKGQPREPQVYTLPPSRDELTKNQVSLTCLVKGFYPSDIAVEWESNGQPENNYKTTPPVLDSDGSFFLYSKLTVDKSRWQQGNVFSCSVMHEALHNHYTQKSLSLSPGK
# B7: variant CD155 IgV-Fc P18S, V41A, H49R, S54C, L79S, N85Y, L88P, F91S, L104M, T107M (Fc fusion)
# chain: WPPPGTGDVVVQAPTQVSGFLGDSVTLPCYLQVPNMEVTHASQLTWARRGESGCMAVFHQTQGPSYSESKRLEFVAARSGAELRYASPRMSGLRVEDEGNYTCMFVMFPQGSRSVDIWLRVLGSGGGGSEPKSSDKTHTCPPCPAPEAEGAPSVFLFPPKPKDTLMISRTPEVTCVVVDVSHEDPEVKFNWYVDGVEVHNAKTKPREEQYNSTYRVVSVLTVLHQDWLNGKEYKCKVSNKALPAPIEKTISKAKGQPREPQVYTLPPSRDELTKNQVSLTCLVKGFYPSDIAVEWESNGQPENNYKTTPPVLDSDGSFFLYSKLTVDKSRWQQGNVFSCSVMHEALHNHYTQKSLSLSPGK
# B8: variant CD155 IgV-Fc V9A, P18F, T61S, Q62L, L79P, F91S, G111R (Fc fusion)
# chain: WPPPGTGDAVVQAPTQVFGFLGDSVTLPCYLQVPNMEVTHVSQLTWARHGESGSMAVFHQSLGPSYSESKRLEFVAARPGAELRNASLRMSGLRVEDEGNYTCLFVTFPQRSRSVDIWLRVLGSGGGGSEPKSSDKTHTCPPCPAPEAEGAPSVFLFPPKPKDTLMISRTPEVTCVVVDVSHEDPEVKFNWYVDGVEVHNAKTKPREEQYNSTYRVVSVLTVLHQDWLNGKEYKCKVSNKALPAPIEKTISKAKGQPREPQVYTLPPSRDELTKNQVSLTCLVKGFYPSDIAVEWESNGQPENNYKTTPPVLDSDGSFFLYSKLTVDKSRWQQGNVFSCSVMHEALHNHYTQKSLSLSPGK
# B9: variant CD155 IgV-Fc V11A, P18T, N35S, L79P, S87T, F91S (Fc fusion)
# chain: WPPPGTGDVVAQAPTQVTGFLGDSVTLPCYLQVPSMEVTHVSQLTWARHGESGSMAVFHQTQGPSYSESKRLEFVAARPGAELRNATLRMSGLRVEDEGNYTCLFVTFPQGSRSVDIWLRVLGSGGGGSEPKSSDKTHTCPPCPAPEAEGAPSVFLFPPKPKDTLMISRTPEVTCVVVDVSHEDPEVKFNWYVDGVEVHNAKTKPREEQYNSTYRVVSVLTVLHQDWLNGKEYKCKVSNKALPAPIEKTISKAKGQPREPQVYTLPPSRDELTKNQVSLTCLVKGFYPSDIAVEWESNGQPENNYKTTPPVLDSDGSFFLYSKLTVDKSRWQQGNVFSCSVMHEALHNHYTQKSLSLSPGK
# B10: variant CD155 IgV-Fc V9I, P18T, H49R, L79P, N85D, F91S, L104T, T107M (Fc fusion)
# chain: WPPPGTGDIVVQAPTQVTGFLGDSVTLPCYLQVPNMEVTHVSQLTWARRGESGSMAVFHQTQGPSYSESKRLEFVAARPGAELRDASLRMSGLRVEDEGNYTCTFVMFPQGSRSVDIWLRVLGSGGGGSEPKSSDKTHTCPPCPAPEAEGAPSVFLFPPKPKDTLMISRTPEVTCVVVDVSHEDPEVKFNWYVDGVEVHNAKTKPREEQYNSTYRVVSVLTVLHQDWLNGKEYKCKVSNKALPAPIEKTISKAKGQPREPQVYTLPPSRDELTKNQVSLTCLVKGFYPSDIAVEWESNGQPENNYKTTPPVLDSDGSFFLYSKLTVDKSRWQQGNVFSCSVMHEALHNHYTQKSLSLSPGK
# B11: variant CD155 IgV-Fc P18S, D23G, C29R, N35D, E37G, M55I, Q62K, S65A, S67G, R78G, L79P, F91S, L104M, T107M, Q110R (Fc fusion)
# chain: WPPPGTGDVVVQAPTQVSGFLGGSVTLPRYLQVPDMGVTHVSQLTWARHGESGSIAVFHQTKGPAYGESKRLEFVAAGPGAELRNASLRMSGLRVEDEGNYTCMFVMFPRGSRSVDIWLRVLGSGGGGSEPKSSDKTHTCPPCPAPEAEGAPSVFLFPPKPKDTLMISRTPEVTCVVVDVSHEDPEVKFNWYVDGVEVHNAKTKPREEQYNSTYRVVSVLTVLHQDWLNGKEYKCKVSNKALPAPIEKTISKAKGQPREPQVYTLPPSRDELTKNQVSLTCLVKGFYPSDIAVEWESNGQPENNYKTTPPVLDSDGSFFLYSKLTVDKSRWQQGNVFSCSVMHEALHNHYTQKSLSLSPGK
# B12: variant CD155 IgV-Fc V11E, P18H, F20Y, V25E, N35S, H49R, L79P, F91S, T107M, G111R (Fc fusion)
# chain: WPPPGTGDVVEQAPTQVHGYLGDSETLPCYLQVPSMEVTHVSQLTWARRGESGSMAVFHQTQGPSYSESKRLEFVAARPGAELRNASLRMSGLRVEDEGNYTCLFVMFPQRSRSVDIWLRVLGSGGGGSEPKSSDKTHTCPPCPAPEAEGAPSVFLFPPKPKDTLMISRTPEVTCVVVDVSHEDPEVKFNWYVDGVEVHNAKTKPREEQYNSTYRVVSVLTVLHQDWLNGKEYKCKVSNKALPAPIEKTISKAKGQPREPQVYTLPPSRDELTKNQVSLTCLVKGFYPSDIAVEWESNGQPENNYKTTPPVLDSDGSFFLYSKLTVDKSRWQQGNVFSCSVMHEALHNHYTQKSLSLSPGK
# B13: variant CD155 IgV-Fc V9L, P18F, T45A, S65A, S67V, R78K, L79V, F91S, T107M, S114T (Fc fusion)
# chain: WPPPGTGDLVVQAPTQVFGFLGDSVTLPCYLQVPNMEVTHVSQLAWARHGESGSMAVFHQTQGPAYVESKRLEFVAAKVGAELRNASLRMSGLRVEDEGNYTCLFVMFPQGSRTVDIWLRVLGSGGGGSEPKSSDKTHTCPPCPAPEAEGAPSVFLFPPKPKDTLMISRTPEVTCVVVDVSHEDPEVKFNWYVDGVEVHNAKTKPREEQYNSTYRVVSVLTVLHQDWLNGKEYKCKVSNKALPAPIEKTISKAKGQPREPQVYTLPPSRDELTKNQVSLTCLVKGFYPSDIAVEWESNGQPENNYKTTPPVLDSDGSFFLYSKLTVDKSRWQQGNVFSCSVMHEALHNHYTQKSLSLSPGK
# B14: variant CD155 IgV-Fc V9L, P18Y, V25A, V38G, M55V, A77T, L79P, M90I, F91S, L104M (Fc fusion)
# chain: WPPPGTGDLVVQAPTQVYGFLGDSATLPCYLQVPNMEGTHVSQLTWARHGESGSVAVFHQTQGPSYSESKRLEFVATRPGAELRNASLRISGLRVEDEGNYTCMFVTFPQGSRSVDIWLRVLGSGGGGSEPKSSDKTHTCPPCPAPEAEGAPSVFLFPPKPKDTLMISRTPEVTCVVVDVSHEDPEVKFNWYVDGVEVHNAKTKPREEQYNSTYRVVSVLTVLHQDWLNGKEYKCKVSNKALPAPIEKTISKAKGQPREPQVYTLPPSRDELTKNQVSLTCLVKGFYPSDIAVEWESNGQPENNYKTTPPVLDSDGSFFLYSKLTVDKSRWQQGNVFSCSVMHEALHNHYTQKSLSLSPGK
# Target: T1, TIGIT (human)
# T1 chain: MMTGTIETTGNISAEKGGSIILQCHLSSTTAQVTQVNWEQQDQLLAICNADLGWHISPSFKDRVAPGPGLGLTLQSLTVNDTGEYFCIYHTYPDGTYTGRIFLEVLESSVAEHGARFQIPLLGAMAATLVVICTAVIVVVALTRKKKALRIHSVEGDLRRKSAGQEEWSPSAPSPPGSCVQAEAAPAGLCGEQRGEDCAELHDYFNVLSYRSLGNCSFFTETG
# Assay: cell-based or functional assay
row,"IL-2 luciferase reporter, Normalized Fold Change from CD155-ECD",Binder
1,2.1 fold,B1
2,3.5 fold,B2
3,1.3 fold,B3
4,2 fold,B4
5,0.9 fold,B5
6,4.5 fold,B6
7,-1 fold,B7
8,1.3 fold,B8
9,2.1 fold,B9
10,4 fold,B10
11,1.2 fold,B11
12,-0.6 fold,B12
13,6 fold,B13
14,1.2 fold,B14
